Changes are numbered by the printed parent chain. Names and notes keep the numbering of the source.
B1: G410F: TP-DNAP1 variant (protein)
chain: MDYKDKALNDLRNVYADFDSLPLDFRQILIKDRATLLQKEDVEKKILERQEDAKKYAEYLKQSEIPERISLPNIKRHKGVSISFEETSEDMVLEPRPFIFDGLNIRCFRRETIFSLKNKILNMVKESSSFKNVSRQSVSFMYFKIFNKGKVIASTKSVNIYEDKIDERLEDLCNNFDDVLKKIIDVTYGYESLFVSETYSYVIFYAKSIYFPQPRCVNNWGNNIPNILTFDSFKLFTANKNNVSCIKQCSRFLWQKDFNTLEEMIEYKNGNICIVTPQLHINDVRDIKSFNDIRLYSESPIKTFSVIDNTITYLFYFKEHLGVIFNITKSRHDRRVTKFSPLSKFSDVKNITVCFDIESYFDPEKESNQVNIPFICCASIIYNKVIGNIVDFEGRDCVAQMIEYVVDICFELNISSVELIAHNGGGYDFHYILSSMYNPAAIKNILIRNNSFISFNFAHDGVKFSVKDSYSFLLCSLANASKAFLNEETFKKTDFPHHDLKTADDLYKVYKEWSSVNTEINHVVEKEKLLITSEHIVNFTKNDKSKTLIEWSKDYCRNDVLVLSKVWLEFKNAVEDIFNCELVDQTMTLAGLSYKLFQANMPFDVELRHPNKEDYFNMREALIGGRCISVNGIYKDVLCLDVKSLYPASMAFYDQPYGSFKRVSSRPKDELGIYYVRVTPNRNNKSNFFPIRSHNKITYNNFEESTYIAWYTNVDIDIGLSEGHNIEYIPFDSYGNIGYSWSKKGKIFEKYIKDVLYKLKIKYEKQNNKVKRNVIKIIMNSLWGKFAQKWVNFEYFIKSEDDIDFESEEAYKIWDTDFMLIKKIKESTYSSKPIQNGVFTLSWARYHMKSIWDAGAKEGAECIYSDTDSIFVHKEHFKKNAKFMLNGLKVPIIGSEVGQLELECEFDKLLCAGKKQYMGFYTYFQDGKPCIKEKKRFKGIPSNYIIPELYAHLLSGADKEAKIQFLKFRREWGSVKGYIENKTVKAT
B2: K612A: TP-DNAP1 variant (protein)
chain: B1 chain with F410G, K612A
B3: E411N: TP-DNAP1 variant (protein)
chain: B1 chain with F410G, E411N
B4: N291M: TP-DNAP1 variant (protein)
chain: B1 chain with N291M, F410G
B5: G461K: TP-DNAP1 variant (protein)
chain: B1 chain with F410G, G461K
B6: E411K: TP-DNAP1 variant (protein)
chain: B1 chain with F410G, E411K
B7: G426T: TP-DNAP1 variant (protein)
chain: B1 chain with F410G, G426T
B8: E411G: TP-DNAP1 variant (protein)
chain: B1 chain with F410G, E411G
B9: E411S: TP-DNAP1 variant (protein)
chain: B1 chain with F410G, E411S
B10: E411R: TP-DNAP1 variant (protein)
chain: B1 chain with F410G, E411R
B11: E411D: TP-DNAP1 variant (protein)
chain: B1 chain with F410G, E411D
B12: N611P, V897V: TP-DNAP1 variant (protein)
chain: B1 chain with F410G, N611P
B13: G410W: TP-DNAP1 variant (protein)
chain: B1 chain with F410W
B14: E411A: TP-DNAP1 variant (protein)
chain: B1 chain with F410G, E411A
B15: N291K: TP-DNAP1 variant (protein)
chain: B1 chain with N291K, F410G
B16: D460G: TP-DNAP1 variant (protein)
chain: B1 chain with F410G, D460G
B17: S415V: TP-DNAP1 variant (protein)
chain: B1 chain with F410G, S415V
B18: G410S: TP-DNAP1 variant (protein)
chain: B1 chain with F410S
B19: N413T: TP-DNAP1 variant (protein)
chain: B1 chain with F410G, N413T
B20: N413E: TP-DNAP1 variant (protein)
chain: B1 chain with F410G, N413E
B21: E411L: TP-DNAP1 variant (protein)
chain: B1 chain with F410G, E411L
B22: N413H: TP-DNAP1 variant (protein)
chain: B1 chain with F410G, N413H
B23: I414F: TP-DNAP1 variant (protein)
chain: B1 chain with F410G, I414F
B24: G410Y: TP-DNAP1 variant (protein)
chain: B1 chain with F410Y
B25: L412V: TP-DNAP1 variant (protein)
chain: B1 chain with F410G, L412V
B26: N611Q: TP-DNAP1 variant (protein)
chain: B1 chain with F410G, N611Q
B27: G410T: TP-DNAP1 variant (protein)
chain: B1 chain with F410T

system: p1; test: p1 copy number by p1-encoded mKate2 fluorescence; type: cell-based, S. cerevisiae; settings: OR-Y24, measured in triplicate
Protocol: A calibration curve was established to correlate p1 copy number, determined via quantitative PCR (qPCR), with fluorescence of p1-encoded mKate2 (Table 1). Five TP-DNAP1 variants representing a wide range of copy numbers were transformed into ORY24 and passaged until w.t. p1 was displaced. The five OR-Y24 strains were grown to saturation, diluted 1:10,000 to mimic p1 fluctuation tests, and grown in triplicate 100 μL cultures and duplicate 40 mL cultures. 100 μL saturated cultures were subject to fluorescence measurement of mKate2 (ex/em=561 nm/620 nm, bandwidth=15 nm) on a flow cytometer (Invitrogen Attune NxT). Whole-cell DNA extracts were prepared from 40 mL cultures and used as templates for qPCR measurement of p1-encoded leu2 (Q180*), as described previously (Ravikumar et al., 2014). p1-encoded LEU2 was PCR amplified with qPCR-Leu2F and qPCR Leu2R; and genomic LEU3 was PCR amplified with qPCR-Leu3F and qPCR-Leu3R using SyBR Green (Fisher Scientific) master mix.
To assay p1 copy number for large-scale p1 fluctuation tests, additional replicates of OR-Y24 strains were grown from the 1:10,000 dilution in triplicate and saturated cultures were subject to fluorescence measurement via flow cytometry. Fluorescence measurements were converted to copy number with the linear calibration curve.
To assay relative p1 copy number for small-scale p1 fluctuation tests, an additional 200 μL culture of OR-Y24 strains were grown from the 1:10,000 dilution. 200 μL saturated cultures were subject to an OD600 measurement and fluorescence measurement of mKate2 (ex/em=588 nm/633 nm), using a microplate reader (TECAN Infinite M200 PRO). A linear relationship was assumed between p1 copy number and OD600-normalized mKate2 fluorescence. Copy numbers were calculated from normalization to a w.t. TP-DNAP1 control.
For a few large-scale p1 fluctuation tests, p1 copy number was assayed by the method of small scale p1 fluctuation tests (i.e. microplate reader measurement). For these experiments, mutant TP-DNAP1 p1 copy numbers were calculated by normalization to a w.t. TP-DNAP1 control. The copy number of this control was assumed to be the average w.t. TP-DNAP1 copy number from all large-scale p1 fluctuation tests that used flow cytometry measurements.
TP-DNAP1 plasmids were isolated from these strains and subject to Sanger sequencing. 210 unique variants were identified and the corresponding plasmids were re-transformed into OR-Y24. Transformed strains were passaged in SC-UH until w.t. p1 was displaced, and subject to p1 copy number measurement in triplicate. Four high copy variants were directly subject to qPCR measurements for validation. To test the suppressor activity of the G410H mutation, which yields increased p1 copy number, this amino acid change was added to several low-activity TP-DNAP1 variants. p1 copy number was similarly assayed for these strains.

| Molecule | Mean fold-increase over w.t. (p1 copy number) [fold] |
| --- | --- |
| B1 | 2.66 |
| B2 | 1.94 |
| B3 | 1.9 |
| B4 | 2.28 |
| B5 | 2.15 |
| B6 | 2.39 |
| B7 | 1.22 |
| B8 | 1.54 |
| B9 | 1.52 |
| B10 | 2.07 |
| B11 | 2.32 |
| B12 | 2.04 |
| B13 | 2.5 |
| B14 | 2.08 |
| B15 | 1.66 |
| B16 | 1.63 |
| B17 | 1.44 |
| B18 | 2.27 |
| B19 | 1.76 |
| B20 | 2.62 |
| B21 | 2.22 |
| B22 | 2.2 |
| B23 | 1.29 |
| B24 | 2.73 |
| B25 | 2.21 |
| B26 | 1.92 |
| B27 | 2.57 |

From patent US20230242902A1, “A HIGHLY ERROR-PRONE […] R[…] FOR TARGETED CONTINUOUS EVOLUTION IN VIVO” (The Regents of the University of California, priority 2017, published 2023)
